Test results: US9902783B2, “Antibodies and pharmaceutical compositions containing same useful for inhibiting activity of metalloproteins” (Yeda Research and Development Co. Ltd., priority 2007, dated 2018)

Biological target: T1, Heme group within Myoglobin (Homo sapiens, UniProt P02144)
T1 sequence (P02144 1-154): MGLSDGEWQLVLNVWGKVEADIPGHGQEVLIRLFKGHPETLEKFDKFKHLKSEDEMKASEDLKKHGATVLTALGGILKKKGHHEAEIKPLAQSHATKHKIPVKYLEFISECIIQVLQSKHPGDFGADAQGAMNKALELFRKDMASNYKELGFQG
Assay: cross reactivity, competitive ELISA and immuno affinity assay, Myoglobin
Assay type: binding
Text: The selectivity of anti CoTCPP and anti Imisdp was further challenged, by testing their cross reactivity with non related zinc dependent enzymes—Carbonic Anhydrase (CA) and brockii alcohol dehydrogenase (TbADH). Similar to active MMPs CA contains a zinc ion that is tetrahedraly coordinated to three histidine residues and a water molecule, TbADH contains a catalytic zinc ion that is tetraheadrally coordinated to four different amino acid residues, histidine, cysteine, aspartate and glutamate. […] Anti CoTCPP mAb was also tested for its cross reactivity with related physiological porphyrins such as the Heme group within Myoglobin and Hemoglobin and vitamin.

B1: 13E11: monoclonal antibody, IgG2b, raised against the hapten CoTCPP (antibody, V domains shown)
VH: EGGGLVQPGGSRKLSCAASGFTFTSFGMHWVRQAPEKGLEWVAYISSGNEIIYYADTVKGRFTISRDNPKNTLFLQMTSLRSEDTAMYYCARNYYRYGFYVMDYWGQG
VL: EIVVTQSPAILSASPGEKVTMTCRASSSVSYMHWYQQKPGSSPKPWIYATSNELASGVPARFSGSGSGTSYSLTISRVEAEDAATYYCQQWISNPLTFGAG
modifications: 13E11 mAb heavy chain; 13E11 mAb light chain
notes: monoclonal antibody, IgG2b, raised against the hapten CoTCPP
- cross reactivity with Myoglobin: No cross was detected
